Source: patent US20150232562A1 (Ablynx, published 2015)
Substitutions are numbered along the chain they refer to.

B1: 12E42/1-118 (VHH)
VHH: EVQLVESGGGLVQPGGSLRLSCAHSGRAFSLRTMGWYRQAPGNQRELVALISAGDSTYYPDSVKGRFTVSRDNAKNTVYLQMNSLKPEDTAVYYCNAKAVTSRDHEYWGQGTQVTVSS
notes: C-term myc-His6 tag
B2: 22C51/1-121 (VHH)
VHH: EVQLVESGGGLVQAGASLRLSCAASGRTFSRYDIGWFRQAPGKGREFVAAINWSGGTTSFGDSVKGRFTISRDNAKNTVYLQMNSLKPEDTAVYYCAALRSWPRGVDSGSWGQGTQVTVSS
notes: C-term myc-His6 tag
B3: 13G11/1-122 (VHH)
VHH: EVQLVESGGGLVQAGGSLRLSCAASGRTFISNYAMGWFRQAPGKEREFVATINWSGSHSDYADSVKGRFTISRDNAKNTVYLQMNNLKSEDTAVYYCAPGWGTAPLSTSVYWGQGTQVTVSS
notes: C-term myc-His6 tag
B4: 14H121/1-113 (VHH)
VHH: EVQLVESGGGLVQPGGSLRLSCAASGITFRFKAMGWFRQGPGKRRELVARIAGGSTNYADSVKGRFTISRDDAKNTVFLQMNSLKPEDTAVYYCNVDGPFGNWGQGTQVTVSS
notes: C-term myc-His6 tag
B5: 12C91/1-121 (VHH)
VHH: EVQLVESGGGLVQAGGSLRLSCVASGRTSSYYHMAWFRQAPGKEREFIAAINLSSGSTYYPDSVKGRFTISRGNAKNTVNLQMNSLKPEDTAVYYCAADNYRDSYLEYDYWGQGTQVTVSS
notes: C-term myc-His6 tag
B6: 11B61/1-120 (VHH)
VHH: EVQLVESGGGLVQAGGSLRLSCAASGRTSSGYGMGWFRQAPGKEREFVAAVGWYGSTYFADSVKGRFTIYRDNAQNTMYLQMNSLKPEDTAVYYCAASSSLATISQPSSWGQGTQVTVSS
notes: C-term myc-His6 tag
B7: 12C111/1-123 (VHH)
VHH: EVQLVESGGGLVQAGGSLRLSCAVSGLTFSSYAMGWFRQAPGKVREFVATISRSGGRTSYADSVKGRFIVSRDNAKNTADLQMNDLKPEDTAVYYCGASKWYGGFGDTDIEYWGQGTQVTVSS
notes: C-term myc-His6 tag
B8: 22B55/1-123 (VHH)
VHH: B7 VHH with S31T, D85E
notes: C-term myc-His6 tag
B9: 21A31/1-125 (VHH)
VHH: EVQLVESGGGLVQAGGSLRLSCAASEPTFSSVAMGWFRQGPGKEREFAATITWSGDSTYVTDSVKGRFTISRDNARNTAYLQMDSLRPEDTAVYSCAARRWSGTLSLFDNEYYYWGQGTQVTVSS
notes: C-term myc-His6 tag
B10: 21A41/1-120 (VHH)
VHH: EVQLVESGGGLVQAGGSLRLSCAASGRIFSNYAWSWFRQAPGKERGFVAAINWSGGYTDYADSVKGRFTISRDNTKNTVYLQMNSLKPEDTAVYYCRPGWVTPSYEYGNWGQGTQVTVSS
notes: C-term myc-His6 tag
B11: 14H101/1-128 (VHH)
VHH: EVQLVESGGGLVQAGGSLRLSCAASGRTFISSPMGWFRQAPGKEREVVAATTRSGGLPYYSDSVKGRFTISRDNAKNTVDLQMSSLKPEDTAAYYCAADQKYGMSYSRLWLVSEYEYWGQGTQVTVSS
notes: C-term myc-His6 tag
B12: 11A52/1-120 (VHH)
VHH: EVQLVESGGGLVQAGGSLRLSCAASGRALSNYAMRWFRQAPGKEREFVATINWSGSHTDYADSVKGRFTISRDNAENTVYLQMNSLTPEDTAVYYCASGWGATQAQSGFWGQGTQVTVSS
notes: C-term myc-His6 tag
B13: 14H111/1-120 (VHH)
VHH: B12 VHH with S30I, N31S, Y32F, T50A, S56T, Q82L, T87I, S98T, S107H
notes: C-term myc-His6 tag
B14: 118N121_A6_2_OK/1-123 (VHH)
VHH: EVQLVESGGGLVQAGGSLRLSCVASGRTFSGYSVGWFRQSPGKEREFVGGINWSGRTYYVDSVKGRFTFSRDNAKNTVYLQMNSLKPEDTAIYLCAVDRFNTIANLPGEYDYWGQGTQVTVSS
notes: C-term myc-His6 tag
B15: 11B102/1-118 (VHH)
VHH: EVQLVESGGGLVQAGGSLRLSCAASGGIFSSHAISWFRQAPGKAREFVAAINWSGSHRDYADSAKGRFTISRDNAKKTAYLQMNSLRPEDTAVYYCVGGWKTDEYVKWGQGTQVTVSS
notes: C-term myc-His6 tag
B16: 12D102/1-118 (VHH)
VHH: EVQLVESGGGLVQPGGSLRLSCAASGSSLSFNAMGWSREAPGKRRELVARIISDDSTLYADSVKGRFTISRDYAKNTAYLQMNSLKPEDTAVYYCVADVRDSIWRSYWGQGTQVTVSS
notes: C-term myc-His6 tag
B17: 14H81/1-125 (VHH)
VHH: EVQLVESGGGLVQAGGSLSLSCAASGRTFSNYRMAWFRQAPRKEREFVAAISRSGESTYFADSMKGRFTISRDNTESTGYLQMNNLKPEDTAVYYCAASWDHGDYVDGGFFYDYWGQGTQVTVSS
notes: C-term myc-His6 tag
B18: 12E21/1-115 (VHH)
VHH: EVQLVESGGGLVQPGGSLRLSCAASGSIDSIHVVGWYRKAPGKQREVVAYIGTAGATHYADSVKGRFTISRDNAENLVYLQMNNLKPEDTAVYYCSAGWGDSAYWGQGTQVTVSS
notes: C-term myc-His6 tag
B19: 12D11/1-123 (VHH)
VHH: EVQLVESGGGLVQTGGSLRLSCAASGRTFSGSRMGWFRQAPGKEREFVAAIRWSGGITWYAESVKSRFTISRDNTKNTIDLQINSLKPEDTAVYYCAADVIYKNIGSGSFDYWGQGTQVTVSS
notes: C-term myc-His6 tag
B20: 12D14/1-123 (VHH)
VHH: B19 VHH with T14A, F37L, I51V, S66G
notes: C-term myc-His6 tag
B21: 13F81A/1-128 (VHH)
VHH: EVQLVESGGGLVQAGGSLRLSCAASGRTFSRYAMGWFRQAPGKEREFVAAISWTGGSSYYGDSVKGRSTISRENAENTVYLQMNSLKPEDTAVYYCAANSDEFYSGTLKLQSRMVEYWGQGTQVTVSS
notes: C-term myc-His6 tag
B22: 12C42/1-124 (VHH)
VHH: EVQLVESGGGLVQAGGSLRLSCAASGRTFSRYAMHWFRQAPGSERDFVAGISWDGGSTFYANSVKGRFTISRDNAKNMVYLQMNSLKPEDTAVYYCAAAGSAGPPSIDRQYDYWGQGTQVTVSS
notes: C-term myc-His6 tag
B23: 12E33/1-119 (VHH)
VHH: EVQLVESGGGMVQAGGSLRLSCAASGLTLSNYGMGWFRQAPGKEREFVSSINWSGTHTYDADFVKGRFIISRDNAKNTVYLQINSLKPEDTAVYYCAAGGWGTGRYNYWGQGTQVTVSS
notes: C-term myc-His6 tag
B24: 12C71/1-125 (VHH)
VHH: EVQLVESGGGLVQAGGSLRLSCTASGGTFGSYALGWFRQSPGKERESVAAIDWDGSRTQYADSVKGRFTISRENVKDTMYLQMNSLQAEDTGVYYCVRSRHSGNTLSFSLKYDYWGQGTQVTVSS
notes: C-term myc-His6 tag
B25: 13F21/1-123 (VHH)
VHH: EVQLVESGGGLVQSGGSLRLSCVASGTIVSINATSWYRQAPGNQRELVATIIGDGRTHYADSVKDRFTISRDAAANLVYLQMNSLKPSDTAIYSCNANGIESYGWGNRHFNYWTVGTQVTVSS
notes: C-term myc-His6 tag

The binders below were run against T1, recombinant human ErbB2/Fc chimera (human, UniProt P04626 23-652) (assay: ELISA, coated ErbB2/Fc).
T1 construct: bought from R&D Systems; also called rhErbB2-Fc; rhErb2-Fc; Fc part of the bought chimera not given; not described
B1: binds. B2: binds. B3: binds. B4: binds. B5: binds. B6: binds. B7: binds. B8: binds. B9: binds. B10: binds. B11: binds. B12: binds. B13: binds. B14: binds. B15: binds. B16: binds. B17: binds. B18: binds. B19: binds. B20: binds. B21: binds. B22: binds. B23: binds. B24: binds. B25: binds.
